Changes are numbered by the printed parent chain. Names may count otherwise. No end group written: not given here. TMR = tetramethyl rhodamine dye
B1: TMR-E2F1^TD, peptide of the E2F1 transactivation domain (peptide)
peptide: {TMR}-GEGIRDLFDCDFGDLTPLD
notes: also called E2F^TD; source: synthetic peptide, bought: GenScript
B2: TMR-E7^LxCxE, LxCxE peptide of the E7 oncoprotein from HPV (peptide)
peptide: DLYCYEQLN
modifications: also: TMR label, position not given here
notes: source: synthetic peptide, bought: GenScript

What was measured:
Assay in all cases: fluorescence polarisation; 37 °C, after the 25 °C reading ramped over 7 min to 37 °C and 2 min incubation; unlabeled Rb^P against 1.5 nM TMR-E2F1^TD or 7.5 nM TMR-E7^LxCxE; 25 mM Tris pH 8.0, 200 mM NaCl, 1 mM DTT, 0.1% Tween-20; apparent Kd
Conditions in all cases: both partners purified
[1] = biological target: T1, Rb^P R451H (human, UniProt P06400 380-788, R451H)
T1 construct: also called variant 6
T1 sequence (looked up): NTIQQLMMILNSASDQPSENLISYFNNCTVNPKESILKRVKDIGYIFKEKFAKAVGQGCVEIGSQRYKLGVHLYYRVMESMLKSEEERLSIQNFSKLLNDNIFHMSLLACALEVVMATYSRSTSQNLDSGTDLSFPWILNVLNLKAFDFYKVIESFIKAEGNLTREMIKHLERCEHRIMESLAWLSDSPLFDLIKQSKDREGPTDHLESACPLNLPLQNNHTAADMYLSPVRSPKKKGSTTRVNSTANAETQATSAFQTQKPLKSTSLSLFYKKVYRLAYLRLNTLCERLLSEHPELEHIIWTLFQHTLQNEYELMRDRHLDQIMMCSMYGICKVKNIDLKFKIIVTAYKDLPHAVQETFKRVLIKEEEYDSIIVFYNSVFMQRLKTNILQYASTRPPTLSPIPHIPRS

[2] = biological target: T2, Rb^P R621P (human, UniProt P06400 380-788, R621P)
T2 construct: also called variant 43
T2 sequence (looked up): T1 sequence (looked up) with H72R, R242P

[3] = biological target: T3, Rb^P R611S (human, UniProt P06400 380-788, R611S)
T3 construct: also called variant 38
T3 sequence (looked up): T1 sequence (looked up) with H72R, R232S

[4] = biological target: T4, Rb^P S648T (human, UniProt P06400 380-788, S648T)
T4 construct: also called variant 46
T4 sequence (looked up): T1 sequence (looked up) with H72R, S269T

[5] = biological target: T5, Rb^P H555Y (human, UniProt P06400 380-788, H555Y)
T5 construct: also called variant 29
T5 sequence (looked up): T1 sequence (looked up) with H72R, H176Y

Row | Binder | Kd [1] | Kd [2] | Kd [3] | Kd [4] | Kd [5]
1 | B1 | 56 nM | 83 nM | 30 nM | 58 nM | 366 nM
2 | B2 | 22 nM | 32 nM | 15 nM | 14 nM | 32 nM
